Measurements from patent US20260001928A1 (CORTERIA PHARMACEUTICALS, priority 2022, published 2026).
*1 amine or outer side, *2 acyl side, *3 side chain or, on linkers, in order; H or OH if unused. Primed or numbered codes have the meaning given here. Side-chain parts run from the residue outwards. [ ]: non-standard residue; d: D form. The star is where a group is joined. Thp′ = 4-amino-tetrahydro-2H-pyran-4-yl-acetic acid, O=C(CC1(N[*:1])CCOCC1)[*:2]; C20 diacid = O=C(O)CCCCCCCCCCCCCCCCCCC(=O)*; C18 diacid = O=C(O)CCCCCCCCCCCCCCCCC(=O)*; γGlu = O=C(O)[C@H](CCC(=O)[*:2])N[*:1]; Api = NC1(C(=O)O)CCNCC1; AEEA = NCCOCCOCC(=O)O; Aib = CC(C)(N)C(=O)O

T1: CRF1R receptor (UniProt P34998 24-415, limits assumed)
T1 sequence (looked up): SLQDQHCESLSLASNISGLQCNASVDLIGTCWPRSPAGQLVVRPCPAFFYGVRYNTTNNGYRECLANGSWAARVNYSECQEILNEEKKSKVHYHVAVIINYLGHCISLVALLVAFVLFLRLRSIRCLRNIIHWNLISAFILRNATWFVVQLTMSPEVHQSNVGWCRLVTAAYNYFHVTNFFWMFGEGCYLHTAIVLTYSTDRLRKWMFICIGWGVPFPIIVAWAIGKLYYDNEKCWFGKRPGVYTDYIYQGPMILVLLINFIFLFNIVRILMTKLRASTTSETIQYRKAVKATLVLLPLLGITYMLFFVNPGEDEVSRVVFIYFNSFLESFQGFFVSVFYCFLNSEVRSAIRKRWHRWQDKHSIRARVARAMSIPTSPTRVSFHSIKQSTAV


What was measured:
[1] = target: human corticotropin-releasing factor 2a (CRF2a receptor) (human), Q13324; assay: cell-based or functional assay
CRF1R receptor = target: T1, CRF1R receptor; assay: cell-based or functional assay

Sequence of human corticotropin-releasing factor 2a (CRF2a receptor) (human), Q13324 (Q13324 20-411): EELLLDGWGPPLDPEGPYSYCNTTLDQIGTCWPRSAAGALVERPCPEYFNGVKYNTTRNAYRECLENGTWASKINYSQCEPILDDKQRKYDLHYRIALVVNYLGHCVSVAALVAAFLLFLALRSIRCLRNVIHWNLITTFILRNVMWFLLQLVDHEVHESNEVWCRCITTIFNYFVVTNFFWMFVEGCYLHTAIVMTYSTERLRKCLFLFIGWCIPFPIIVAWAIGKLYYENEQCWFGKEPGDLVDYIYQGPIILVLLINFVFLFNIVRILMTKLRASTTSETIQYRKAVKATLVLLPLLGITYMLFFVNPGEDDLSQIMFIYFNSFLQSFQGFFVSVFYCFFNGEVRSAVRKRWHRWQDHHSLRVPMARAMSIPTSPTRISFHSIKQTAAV

EC50 [nM] (cAMP) [1]	Emax (% I) (CRF1R receptor) [%]	EC50 (CRF1R receptor) [nM]	Binder
0.22	21	–	Ac-IVLSLD[dV]PIKLK([γGlu-C20 diacid])KILLEQEKQK[Aib]QREQAETN[Aib]QILAQV-NH2 (SMILES CC[C@H](C)[C@H](NC(C)=O)C(=O)N[C@H](C(=O)N[C@@H](CC(C)C)C(=O)N[C@@H](CO)C(=O)N[C@@H](CC(C)C)C(=O)N[C@@H](CC(=O)O)C(=O)N[C@@H](C(=O)N1CCC[C@H]1C(=O)N[C@H](C(=O)N[C@@H](CCCCN)C(=O)N[C@@H](CC(C)C)C(=O)N[C@@H](CCCCNC(=O)CC[C@H](NC(=O)CCCCCCCCCCCCCCCCCCC(=O)O)C(=O)O)C(=O)N[C@@H](CCCCN)C(=O)N[C@H](C(=O)N[C@@H](CC(C)C)C(=O)N[C@@H](CC(C)C)C(=O)N[C@@H](CCC(=O)O)C(=O)N[C@@H](CCC(N)=O)C(=O)N[C@@H](CCC(=O)O)C(=O)N[C@@H](CCCCN)C(=O)N[C@@H](CCC(N)=O)C(=O)N[C@@H](CCCCN)C(=O)NC(C)(C)C(=O)N[C@@H](CCC(N)=O)C(=O)N[C@@H](CCCNC(=N)N)C(=O)N[C@@H](CCC(=O)O)C(=O)N[C@@H](CCC(N)=O)C(=O)N[C@@H](C)C(=O)N[C@@H](CCC(=O)O)C(=O)N[C@H](C(=O)N[C@@H](CC(N)=O)C(=O)NC(C)(C)C(=O)N[C@@H](CCC(N)=O)C(=O)N[C@H](C(=O)N[C@@H](CC(C)C)C(=O)N[C@@H](C)C(=O)N[C@@H](CCC(N)=O)C(=O)N[C@H](C(N)=O)C(C)C)[C@@H](C)CC)[C@@H](C)O)[C@@H](C)CC)[C@@H](C)CC)C(C)C)C(C)C) [SEQ ID NO 209]
0.15	73	39.9	Ac-IVLSLD[dV]PIKLK([γGlu-C20 diacid])KILLEQEAQKKQREQAETN[Aib]QILAQV-NH2 (SMILES CC[C@H](C)[C@H](NC(C)=O)C(=O)N[C@H](C(=O)N[C@@H](CC(C)C)C(=O)N[C@@H](CO)C(=O)N[C@@H](CC(C)C)C(=O)N[C@@H](CC(=O)O)C(=O)N[C@@H](C(=O)N1CCC[C@H]1C(=O)N[C@H](C(=O)N[C@@H](CCCCN)C(=O)N[C@@H](CC(C)C)C(=O)N[C@@H](CCCCNC(=O)CC[C@H](NC(=O)CCCCCCCCCCCCCCCCCCC(=O)O)C(=O)O)C(=O)N[C@@H](CCCCN)C(=O)N[C@H](C(=O)N[C@@H](CC(C)C)C(=O)N[C@@H](CC(C)C)C(=O)N[C@@H](CCC(=O)O)C(=O)N[C@@H](CCC(N)=O)C(=O)N[C@@H](CCC(=O)O)C(=O)N[C@@H](C)C(=O)N[C@@H](CCC(N)=O)C(=O)N[C@@H](CCCCN)C(=O)N[C@@H](CCCCN)C(=O)N[C@@H](CCC(N)=O)C(=O)N[C@@H](CCCNC(=N)N)C(=O)N[C@@H](CCC(=O)O)C(=O)N[C@@H](CCC(N)=O)C(=O)N[C@@H](C)C(=O)N[C@@H](CCC(=O)O)C(=O)N[C@H](C(=O)N[C@@H](CC(N)=O)C(=O)NC(C)(C)C(=O)N[C@@H](CCC(N)=O)C(=O)N[C@H](C(=O)N[C@@H](CC(C)C)C(=O)N[C@@H](C)C(=O)N[C@@H](CCC(N)=O)C(=O)N[C@H](C(N)=O)C(C)C)[C@@H](C)CC)[C@@H](C)O)[C@@H](C)CC)[C@@H](C)CC)C(C)C)C(C)C) [SEQ ID NO 211]
0.15	63	83.9	Ac-IVLSLD[dV]PIKLK([γGlu-C20 diacid])KILLEQEKQK[Aib]QREQAETN[Api]QILAQV-NH2 (SMILES CC[C@H](C)[C@H](NC(C)=O)C(=O)N[C@H](C(=O)N[C@@H](CC(C)C)C(=O)N[C@@H](CO)C(=O)N[C@@H](CC(C)C)C(=O)N[C@@H](CC(=O)O)C(=O)N[C@@H](C(=O)N1CCC[C@H]1C(=O)N[C@H](C(=O)N[C@@H](CCCCN)C(=O)N[C@@H](CC(C)C)C(=O)N[C@@H](CCCCNC(=O)CC[C@H](NC(=O)CCCCCCCCCCCCCCCCCCC(=O)O)C(=O)O)C(=O)N[C@@H](CCCCN)C(=O)N[C@H](C(=O)N[C@@H](CC(C)C)C(=O)N[C@@H](CC(C)C)C(=O)N[C@@H](CCC(=O)O)C(=O)N[C@@H](CCC(N)=O)C(=O)N[C@@H](CCC(=O)O)C(=O)N[C@@H](CCCCN)C(=O)N[C@@H](CCC(N)=O)C(=O)N[C@@H](CCCCN)C(=O)NC(C)(C)C(=O)N[C@@H](CCC(N)=O)C(=O)N[C@@H](CCCNC(=N)N)C(=O)N[C@@H](CCC(=O)O)C(=O)N[C@@H](CCC(N)=O)C(=O)N[C@@H](C)C(=O)N[C@@H](CCC(=O)O)C(=O)N[C@H](C(=O)N[C@@H](CC(N)=O)C(=O)NC1(C(=O)N[C@@H](CCC(N)=O)C(=O)N[C@H](C(=O)N[C@@H](CC(C)C)C(=O)N[C@@H](C)C(=O)N[C@@H](CCC(N)=O)C(=O)N[C@H](C(N)=O)C(C)C)[C@@H](C)CC)CCNCC1)[C@@H](C)O)[C@@H](C)CC)[C@@H](C)CC)C(C)C)C(C)C) [SEQ ID NO 208]
0.21	35	> 250	Ac-IVLSLD[dV]PIKLK([γGlu-C20 diacid])KILLEQEKQKKQREQAETN[Thp′]QILAQV-NH2 [SEQ ID NO 210]
1.43	1	–	Ac-IVLSLD[dV]PIKLK([AEEA-γGlu-γGlu-C18 diacid])KILLEQEKQKKQREQAETN[Aib]QILAQV-NH2 (SMILES CC[C@H](C)[C@H](NC(C)=O)C(=O)N[C@H](C(=O)N[C@@H](CC(C)C)C(=O)N[C@@H](CO)C(=O)N[C@@H](CC(C)C)C(=O)N[C@@H](CC(=O)O)C(=O)N[C@@H](C(=O)N1CCC[C@H]1C(=O)N[C@H](C(=O)N[C@@H](CCCCN)C(=O)N[C@@H](CC(C)C)C(=O)N[C@@H](CCCCNC(=O)COCCOCCNC(=O)CC[C@H](NC(=O)CC[C@H](NC(=O)CCCCCCCCCCCCCCCCC(=O)O)C(=O)O)C(=O)O)C(=O)N[C@@H](CCCCN)C(=O)N[C@H](C(=O)N[C@@H](CC(C)C)C(=O)N[C@@H](CC(C)C)C(=O)N[C@@H](CCC(=O)O)C(=O)N[C@@H](CCC(N)=O)C(=O)N[C@@H](CCC(=O)O)C(=O)N[C@@H](CCCCN)C(=O)N[C@@H](CCC(N)=O)C(=O)N[C@@H](CCCCN)C(=O)N[C@@H](CCCCN)C(=O)N[C@@H](CCC(N)=O)C(=O)N[C@@H](CCCNC(=N)N)C(=O)N[C@@H](CCC(=O)O)C(=O)N[C@@H](CCC(N)=O)C(=O)N[C@@H](C)C(=O)N[C@@H](CCC(=O)O)C(=O)N[C@H](C(=O)N[C@@H](CC(N)=O)C(=O)NC(C)(C)C(=O)N[C@@H](CCC(N)=O)C(=O)N[C@H](C(=O)N[C@@H](CC(C)C)C(=O)N[C@@H](C)C(=O)N[C@@H](CCC(N)=O)C(=O)N[C@H](C(N)=O)C(C)C)[C@@H](C)CC)[C@@H](C)O)[C@@H](C)CC)[C@@H](C)CC)C(C)C)C(C)C) [SEQ ID NO 205]
0.12	65	61.4	Ac-IVLSLD[dV]PIKLK([γGlu-C20 diacid])KILLEQEKQKKQREQAETN[Api]QILAQV-NH2 (SMILES CC[C@H](C)[C@H](NC(C)=O)C(=O)N[C@H](C(=O)N[C@@H](CC(C)C)C(=O)N[C@@H](CO)C(=O)N[C@@H](CC(C)C)C(=O)N[C@@H](CC(=O)O)C(=O)N[C@@H](C(=O)N1CCC[C@H]1C(=O)N[C@H](C(=O)N[C@@H](CCCCN)C(=O)N[C@@H](CC(C)C)C(=O)N[C@@H](CCCCNC(=O)CC[C@H](NC(=O)CCCCCCCCCCCCCCCCCCC(=O)O)C(=O)O)C(=O)N[C@@H](CCCCN)C(=O)N[C@H](C(=O)N[C@@H](CC(C)C)C(=O)N[C@@H](CC(C)C)C(=O)N[C@@H](CCC(=O)O)C(=O)N[C@@H](CCC(N)=O)C(=O)N[C@@H](CCC(=O)O)C(=O)N[C@@H](CCCCN)C(=O)N[C@@H](CCC(N)=O)C(=O)N[C@@H](CCCCN)C(=O)N[C@@H](CCCCN)C(=O)N[C@@H](CCC(N)=O)C(=O)N[C@@H](CCCNC(=N)N)C(=O)N[C@@H](CCC(=O)O)C(=O)N[C@@H](CCC(N)=O)C(=O)N[C@@H](C)C(=O)N[C@@H](CCC(=O)O)C(=O)N[C@H](C(=O)N[C@@H](CC(N)=O)C(=O)NC1(C(=O)N[C@@H](CCC(N)=O)C(=O)N[C@H](C(=O)N[C@@H](CC(C)C)C(=O)N[C@@H](C)C(=O)N[C@@H](CCC(N)=O)C(=O)N[C@H](C(N)=O)C(C)C)[C@@H](C)CC)CCNCC1)[C@@H](C)O)[C@@H](C)CC)[C@@H](C)CC)C(C)C)C(C)C) [SEQ ID NO 207]
0.11	42	224	Ac-IVLSLD[dV]PIKLK([γGlu-C20 diacid])KILLEQEKQKKQREQAETN[Aib]QILAQV-NH2 (SMILES CC[C@H](C)[C@H](NC(C)=O)C(=O)N[C@H](C(=O)N[C@@H](CC(C)C)C(=O)N[C@@H](CO)C(=O)N[C@@H](CC(C)C)C(=O)N[C@@H](CC(=O)O)C(=O)N[C@@H](C(=O)N1CCC[C@H]1C(=O)N[C@H](C(=O)N[C@@H](CCCCN)C(=O)N[C@@H](CC(C)C)C(=O)N[C@@H](CCCCNC(=O)CC[C@H](NC(=O)CCCCCCCCCCCCCCCCCCC(=O)O)C(=O)O)C(=O)N[C@@H](CCCCN)C(=O)N[C@H](C(=O)N[C@@H](CC(C)C)C(=O)N[C@@H](CC(C)C)C(=O)N[C@@H](CCC(=O)O)C(=O)N[C@@H](CCC(N)=O)C(=O)N[C@@H](CCC(=O)O)C(=O)N[C@@H](CCCCN)C(=O)N[C@@H](CCC(N)=O)C(=O)N[C@@H](CCCCN)C(=O)N[C@@H](CCCCN)C(=O)N[C@@H](CCC(N)=O)C(=O)N[C@@H](CCCNC(=N)N)C(=O)N[C@@H](CCC(=O)O)C(=O)N[C@@H](CCC(N)=O)C(=O)N[C@@H](C)C(=O)N[C@@H](CCC(=O)O)C(=O)N[C@H](C(=O)N[C@@H](CC(N)=O)C(=O)NC(C)(C)C(=O)N[C@@H](CCC(N)=O)C(=O)N[C@H](C(=O)N[C@@H](CC(C)C)C(=O)N[C@@H](C)C(=O)N[C@@H](CCC(N)=O)C(=O)N[C@H](C(N)=O)C(C)C)[C@@H](C)CC)[C@@H](C)O)[C@@H](C)CC)[C@@H](C)CC)C(C)C)C(C)C) [SEQ ID NO 206]
